Assay results as given in patent publication US12365732 (23ANDME, dated 2025).

Columns and labels:
[1] = biological target: T1, hu-CD96 isoform 2 on CHO cells (human, UniProt P40200 22-585); test: FACS, Ab 2 nM
T1 construct: also called CHO-CD96 (isoform 2); CD96-CHOs
T1 sequence: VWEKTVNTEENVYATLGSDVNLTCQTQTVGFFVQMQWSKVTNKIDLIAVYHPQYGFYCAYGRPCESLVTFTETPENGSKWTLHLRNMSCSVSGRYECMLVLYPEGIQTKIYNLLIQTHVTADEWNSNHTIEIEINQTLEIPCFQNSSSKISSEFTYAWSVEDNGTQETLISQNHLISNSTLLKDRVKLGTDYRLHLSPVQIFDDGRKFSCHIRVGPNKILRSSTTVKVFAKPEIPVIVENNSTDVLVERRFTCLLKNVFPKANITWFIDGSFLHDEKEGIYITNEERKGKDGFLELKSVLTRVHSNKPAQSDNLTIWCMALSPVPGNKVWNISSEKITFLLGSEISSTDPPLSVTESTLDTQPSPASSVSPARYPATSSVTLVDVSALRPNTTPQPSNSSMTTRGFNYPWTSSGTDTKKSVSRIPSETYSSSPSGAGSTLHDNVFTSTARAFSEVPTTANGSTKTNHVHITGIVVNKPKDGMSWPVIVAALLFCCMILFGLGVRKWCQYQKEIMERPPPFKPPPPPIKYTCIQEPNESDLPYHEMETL
Procedure: (§1) Isoform 1 of hu-CD96 (Origene, catalog #RC213845) was transiently expressed in HEK293T cells following standard lipofectamine or Fugene transfection protocol. […] Cells were washed, and binding was detected by incubation with anti-mouse IgG-FITC (Biolegend, catalog #406001) for 20 minutes at 4° C. Cell binding was analyzed by flow cytometry with a CytoFLEX (Beckman Coulter). Binding curves were calculated as a percentage of cells positive for bound antibody.
(§2) Isoform 2 of hu-CD96 (DNA construct: Origene, catalog #RC221005) was expressed on a single-cell-clone-derived CHO stable cell line. Binding of the anti-CD96 antibodies to the CHO cells were determined as described above with isoform 1 of hu-CD96.

[2] = biological target: T1, hu-CD96 isoform 2 on CHO cells; test: FACS, Ab 10 nM
Procedure: as §1, §2

[3] = biological target: T1, hu-CD96 isoform 2 on CHO cells; test: FACS, Ab 50 nM
Procedure: as §1, §2

[4] = biological target: T1, hu-CD96 isoform 2 on CHO cells; test: FACS, Ab 0.4 nM
Procedure: as §1, §2

[5] = biological target: T1, hu-CD96 isoform 2 on CHO cells; test: FACS, Ab 0.08 nM
Procedure: as §1, §2

[6] = biological target: T1, hu-CD96 isoform 2 on CHO cells; test: FACS, Ab 0.016 nM
Procedure: as §1, §2

[7] = biological target: T1, hu-CD96 isoform 2 on CHO cells; test: FACS, Ab 0.0032 nM
Procedure: as §1, §2

[8] = biological target: T1, hu-CD96 isoform 2 on CHO cells; test: FACS, % positive curve
Procedure: as §1, §2

hu-CD96D1 D3-hFc = hu-CD96D1 D3-hFc (human); test: ELISA, coated CD96D1D3-hFc
Procedure: (§3) CD96 binding of purified hybridoma antibodies: The hu-CD96 and cy-CD96 antigen binding ELISA was performed on the purified hybridoma antibodies. Briefly, 96-well MAXISORP® flat bottom plates (Thermo Fisher Scientific, Waltham, MA; Cat #439454) were coated overnight at 4° C. with 0.5 µg/mL of hu-CD96D1 D3-hFc and cynomolgus monkey CD96D1 D3-hFc in PBS. After removing the coating solution, unspecific binding was blocked by PBS containing 1% bovine serum albumin (blocking buffer) and incubation at room temperature for one hour. Plates were then washed three times with PBS and 0.05% TWEEN®-20 (wash buffer). Serial dilution of purified antibodies in PBS containing 0.5% BSA and 0.05% Tween 20 (ELISA buffer) was added to individual wells followed by incubation at room temperature for one hour with agitation. Plates were washed three times with wash buffer, then 100 µL/well of anti-mouse IgG-HRP (Thermo Fisher Scientific, Waltham, MA; Cat #626520) in ELISA buffer was added. […] Enzymatic color development was stopped with 50 µL/well of TMB stop solution (VWR/Avantor, Radnor, PA, USA; Cat #95059-200). Plates were analyzed with a SpectraMax i3X plate reader (Molecular Devices LLC, San Jose, CA, USA) at 450 nm.

[9] = biological target: T2, cynomolgus monkey CD96D1 D3-hFc (cynomolgus monkey); test: ELISA, coated CD96D1D3-hFc
T2 construct: also called cy-CD96D1 D3
Procedure: as §3

[10] = biological target: T3, recombinant hu-CD96 (M1-M503-polyHis) (human, UniProt P40200 22-519); test: ELISA, blocks hu-CD96-his binding to coated CD155-hFc
T3 construct: also called hu-CD96-his
T3 sequence: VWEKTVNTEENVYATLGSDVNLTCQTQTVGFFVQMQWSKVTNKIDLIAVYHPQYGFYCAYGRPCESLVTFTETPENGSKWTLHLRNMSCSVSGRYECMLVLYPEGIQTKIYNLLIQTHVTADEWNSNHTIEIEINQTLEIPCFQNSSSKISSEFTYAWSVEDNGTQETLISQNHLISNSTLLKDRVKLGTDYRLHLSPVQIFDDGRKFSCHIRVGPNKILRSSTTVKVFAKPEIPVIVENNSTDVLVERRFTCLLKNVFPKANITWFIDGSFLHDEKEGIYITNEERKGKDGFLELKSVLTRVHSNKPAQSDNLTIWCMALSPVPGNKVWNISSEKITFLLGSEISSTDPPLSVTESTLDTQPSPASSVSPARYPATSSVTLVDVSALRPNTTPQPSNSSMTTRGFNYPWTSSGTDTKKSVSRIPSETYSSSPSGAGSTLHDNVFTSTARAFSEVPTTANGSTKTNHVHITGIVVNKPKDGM
Procedure: as §3
CD155 receptor blocking of purified hybridoma antibodies: Human CD155 blocking ELISA was performed on purified hybridoma antibodies following the same protocol as described for CD96 (above), except that serial dilution of purified antibodies 50 µL/well (starting at 1 µM, 1:5 dilution) in assay buffer was added into the reaction.

[11] = biological target: T1, hu-CD96 isoform 2 on CHO cells; test: FACS, CD155-Fc-FLAG 10 nM, Ab 4 nM
Procedure: (§4) CHO cells stably expressing isoform 2 of hu-CD96 (Origene, catalog #RC221005) were incubated with anti-CD96 antibodies for 20 minutes at 4° C. The cells were washed, and then incubated with 10 nM human CD155-Fc-FLAG for 30 minutes at 4° C. Cells were washed, and then human CD155-Fc-FLAG binding was detected by incubation with anti-FLAG-APC (Columbia Biosciences, catalog #D3-1718-1MG) for 20 minutes at 4° C. Cell binding was analyzed by flow cytometry with a CytoFLEX (Beckman Coulter). CD155 binding is represented as median fluorescence intensity (MedFI).
(§5) As shown in Table 20 (below), the anti-CD96 antibodies, mAb1.v7.NGS8, mAb1.v7.NGS9, mAb1.v7.NGS10, mAb1.v7.NGS11, and h10G1 inhibited soluble hu-CD155 binding to CD96-expressing CHO cells dose-dependently and potently. The antibody NK92.39 (Fuchs et al., 2004; Biolegend catalog #338405) inhibited receptor binding similarly.

[12] = biological target: T1, hu-CD96 isoform 2 on CHO cells; test: FACS, CD155-Fc-FLAG 10 nM, Ab 20 nM
Procedure: as §4, §5

[13] = biological target: T1, hu-CD96 isoform 2 on CHO cells; test: FACS, CD155-Fc-FLAG 10 nM, Ab 0.8 nM
Procedure: as §4, §5

[14] = biological target: T1, hu-CD96 isoform 2 on CHO cells; test: FACS, CD155-Fc-FLAG 10 nM, Ab 100 nM
Procedure: as §4, §5

[15] = biological target: T1, hu-CD96 isoform 2 on CHO cells; test: FACS, CD155-Fc-FLAG 10 nM, Ab 0.16 nM
Procedure: as §4, §5

[16] = biological target: T1, hu-CD96 isoform 2 on CHO cells; test: FACS, CD155-Fc-FLAG 10 nM, Ab 0.032 nM
Procedure: as §4, §5

[17] = biological target: T1, hu-CD96 isoform 2 on CHO cells; test: FACS, CD155-Fc-FLAG 10 nM, Ab 0.0064 nM
Procedure: as §4, §5

hu-CD96 Fc = biological target: T4, hu-CD96 Fc (human, biotinylated in Table 16); test: SPR 37C, biotin-CD96-Fc captured, IgG analyte
T4 construct: also called biotinylated hu-CD96-Fc
Procedure: Briefly, a 1:4 dilution of Biotin CAPture Reagent (GE Healthcare) into HBS-EP buffer (0.01 M HEPES pH 7.4, 0.15 M NaCl, 3 mM EDTA, 0.005% Surfactant P20) was applied to the chip at 2 µL/min flow rate. For the kinetics measurements, 20 nM biotinylated hu-CD96-Fc and cy-CD96-Fc was captured at 10 µL/min to achieve ~50 response units in the second flow cell (FC2). FC1 was kept as a reference. Next, 4-fold serial dilutions of IgG in HBS-P buffer (0.01 M HEPES pH 7.4, 0.15 M NaCl, 0.005% surfactant P20) from low (3.125 nM) to high (200 nM) concentration were injected (flow rate: 10 µL/min) at 37° C. The sensorgram was recorded and subject to reference and buffer subtraction before evaluating by BIACORE® 8K Evaluation Software (version 1.1.1.7442). Association rates ($kon$) and dissociation rates ($koff$) were calculated using a simple one-to-one Langmuir binding model. The equilibrium dissociation constant (K_D) value was calculated as the ratio of $koff/kon$.

[18] = biological target: T1, hu-CD96 isoform 2 on CHO cells; test: FACS, blocks 10 nM CD155-Fc-FLAG binding to CD96-CHO
Procedure: as §4, §5

T2 sequence (chain, as listed by the source limits assumed): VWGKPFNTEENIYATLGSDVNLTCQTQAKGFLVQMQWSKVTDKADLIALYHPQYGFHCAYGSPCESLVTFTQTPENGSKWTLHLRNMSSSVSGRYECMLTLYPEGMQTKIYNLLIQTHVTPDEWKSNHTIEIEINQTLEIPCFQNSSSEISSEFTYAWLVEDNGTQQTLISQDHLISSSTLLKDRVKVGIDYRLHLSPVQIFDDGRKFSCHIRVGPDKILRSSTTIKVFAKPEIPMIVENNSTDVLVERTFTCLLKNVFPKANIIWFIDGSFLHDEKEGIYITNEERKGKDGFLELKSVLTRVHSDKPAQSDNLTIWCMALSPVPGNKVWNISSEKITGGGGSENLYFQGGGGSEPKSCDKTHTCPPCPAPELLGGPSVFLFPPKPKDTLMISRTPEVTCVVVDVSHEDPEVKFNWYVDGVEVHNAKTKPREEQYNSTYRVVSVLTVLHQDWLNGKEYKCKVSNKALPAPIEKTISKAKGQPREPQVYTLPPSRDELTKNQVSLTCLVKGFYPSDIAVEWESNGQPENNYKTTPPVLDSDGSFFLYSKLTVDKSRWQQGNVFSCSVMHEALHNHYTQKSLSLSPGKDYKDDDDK

B1: 1G8, purified hybridoma antibody (antibody, V domains shown)
VH: QVQLQQSGPELLKPGASVKISCKASGYTFTDYYINWVKQRPGQGLEWIGWIFPGTEGIYYNEKFKGKATLTVDKSSTTAYMLLSSLTSEDSAVYFCAREGDYRYYSPLGYWGQGTLVTVSA
VL: DIQMNQSPSSLSASLGDTITITCRVSQDISFWLSWYQQKPGNIPKLLIYKASNLHTGVPPRFSGSGSGTDFTLTISSLQPEDIAAYYCLQSQSYPYTFGGGTKLEIK
notes: murine hybridoma IgG
**Q.** Which “% positive” value [1] does the source give for B1 here?
**A.** 26.2%

**Q.** And the “% positive” value [2]?
**A.** 35.3%

**Q.** What about the “% positive” value [3] of the same binder?
**A.** 34.8%

**Q.** What about the “% positive” value [4] of the same binder?
**A.** 7.1%

**Q.** What about the “% positive” value [5] of the same binder?
**A.** 0.2%

**Q.** And the “% positive” value [6]?
**A.** 0%

**Q.** What about the “% positive” value [7] of the same binder?
**A.** 0.1%

**Q.** And the EC50 [8]?
**A.** 1.04 nM

**Q.** What about the EC50 (hu-CD96D1 D3-hFc) of the same binder?
**A.** 0.072 nM

**Q.** Does B1 bind [9]?
**A.** no binding

**Q.** What about the IC50 [10] of the same binder?
**A.** 0.883 nM

B2: mAb1.v7.NGS8 IgG (antibody, V domains shown)
VH: EVQLVQSGAEVKKPGASVKVSCKASGFTFTNNFMHWVRQAPGQGLEWIGMIHANSGITNINEKFKNRVTMTTDTSTSTAYMELRSLRSEDTAVYYCRSDGIYEGYFDYWGQGTLVTVSS
VL: DIQLTQSPSSLSASVGDRVTITCKASQNVGTAIVWYQQKPGKAPKVLIYSASTRYTGVPSRFSGSGSGTDFTLTISSLQPEDFATYYCQQYSSSPLTFGQGTKVEIKG
notes: human IgG1 N297G
**Q.** Which “CD155-Fc binding (MedFI)” value [11] does the source give for B2 here?
**A.** 4960 MedFI

**Q.** What about the “CD155-Fc binding (MedFI)” value [12] of the same binder?
**A.** 4290 MedFI

**Q.** And the “CD155-Fc binding (MedFI)” value [13]?
**A.** 23600 MedFI

**Q.** And the “CD155-Fc binding (MedFI)” value [14]?
**A.** 4180 MedFI

**Q.** And the “CD155-Fc binding (MedFI)” value [15]?
**A.** 52900 MedFI

**Q.** And the “CD155-Fc binding (MedFI)” value [16]?
**A.** 47800 MedFI

**Q.** What about the “CD155-Fc binding (MedFI)” value [17] of the same binder?
**A.** 49200 MedFI

**Q.** And the Kd (hu-CD96 Fc)?
**A.** 0.15 nM

**Q.** What about the koff (hu-CD96 Fc) of the same binder?
**A.** 1.99e-05 s⁻¹

**Q.** What about the kon (hu-CD96 Fc) of the same binder?
**A.** 129000 M⁻¹ s⁻¹

**Q.** What about the IC50 [18] of the same binder?
**A.** 0.76 nM
